Here are results for one molecule from patent publication US20100113355A1.

For test [1], the target named is T1, Biotin-… antigenic peptide (epitope sequence from candidal Hsp90) (Candida ("candidal Hsp90")). The test can be described thus: ELISA, biotinylated hsp90 peptide on streptavidin plate, anti-His-HRP detection; % activity against Mycograb reference standard; site 1; sample in 50 mM Tris, pH 9.0. Background: An ELISA detects its analyte on a solid surface through an enzyme-linked reagent.

Test [2] addresses T1, Biotin-… antigenic peptide (epitope …). Kind of test: ELISA, biotinylated hsp90 peptide on streptavidin plate, anti-His-HRP detection; % activity against Mycograb reference standard; site 2; sample in 50 mM Tris, pH 9.0.
Test [3] has the same target. The test can be described thus: ELISA, biotinylated hsp90 peptide on streptavidin plate, anti-His-HRP detection; % activity against Mycograb reference standard; site 1; sample in 50 mM Tris, 3 mM DTT, pH 9.0.
Test [4] has the same target. Kind of test: ELISA, biotinylated hsp90 peptide on streptavidin plate, anti-His-HRP detection; % activity against Mycograb reference standard; site 2; sample in 50 mM Tris, 3 mM DTT, pH 9.0.
The target is the same in test [5]. Kind of test: ELISA, biotinylated hsp90 peptide on streptavidin plate, anti-His-HRP detection; % activity against Mycograb reference standard; site 1; sample in 0.5 M urea, 0.2 M L-arginine pH 9.5.
Test [6] has the same target. Kind of test: ELISA, biotinylated hsp90 peptide on streptavidin plate, anti-His-HRP detection; % activity against Mycograb reference standard; site 2; sample in 0.5 M urea, 0.2 M L-arginine pH 9.5.
For test [7] the target is unchanged. Kind of test: ELISA, biotinylated hsp90 peptide on streptavidin plate, anti-His-HRP detection; % activity against Mycograb reference standard; site 1; sample in 50 mM Tris, 1 M sucrose, ~0.2% Tween20, 3 mM DTT, pH 3.0.
The target is the same in test [8]. The test can be described thus: ELISA, biotinylated hsp90 peptide on streptavidin plate, anti-His-HRP detection; % activity against Mycograb reference standard; site 2; sample in 50 mM Tris, 1 M sucrose, ~0.2% Tween20, 3 mM DTT, pH 3.0.

B1: MYC123 ("wild type" Mycograb) scFv peptide (scFv)
scFv: MAEVQLVESGAEVKKPGESLRISCKGSGCIISSYWISWVRQMPGKGLEWMGKIDPGDSYINYSPSFQGHVTISADKSINTAYLQWNSLKASDTAMYYCARGGRDFGDSFDYWGQGTLVTVSSGGGGSGGGGSGGGGSDVVMTQSPSFLSAFVGDRITITCRASSGISRYLAWYQQAPGKAPKLLIYAASTLQTGVPSRFSGSGSGTEFTLTINSLQPEDFATYYCQHLNSYPLTFGGGTKVDIKRAAALEHHHHHH
On to B1, for which the ELISA Site 1 [%] (activity compared with the reference) came out at 71% in test [1], 85% in test [3], 90% in test [5] and 135% in test [7]. The ELISA Site 2 [%] (activity compared with the reference) in test [2] amounted to 95%; in test [4] it was 131%; in test [6], 78%; in test [8], 130%.
